Assay results as given in paper PMC9048828, “The Acetyltransferase RibT From Bacillus subtilis Affects in vivo Dynamics of the Multimeric Heavy Riboflavin Synthase Complex” (Frontiers in Microbiology, 2022).

B1: Strep-RibH (enzyme, Bacillus subtilis, UniProt P11998 1-154, looked up)
chain: MNIIQGNLVGTGLKIGIVVGRFNDFITSKLLSGAEDALLRHGVDTNDIDVAWVPGAFEIPFAAKKMAETKKYDAIITLGTVIRGATTHYDYVCNEAAKGIAQAANTTGVPVIFGIVTTENIEQAIERAGTKAGNKGVDCAVSAIEMANLNRSFE
notes: RibH, lumazine synthase of Bacillus subtilis; printed mass of Strep-RibH 17.9 kDa; Cloning and purification are described in the Supplementary Data; The printed mass fits the whole protein with its tag (surmised); also called wt-like Strep-RibH; source: E. coli BL21 (DE3) Star, purified (Strep-Tactin, SEC); also coproduced with His6-RibE; not shown: Strep tag, N-terminal, kept; copies: 60
B2: Strep-RibH^K29R (enzyme, Bacillus subtilis, UniProt P11998 1-154, looked up)
chain: MNIIQGNLVGTGLKIGIVVGRFNDFITSRLLSGAEDALLRHGVDTNDIDVAWVPGAFEIPFAAKKMAETKKYDAIITLGTVIRGATTHYDYVCNEAAKGIAQAANTTGVPVIFGIVTTENIEQAIERAGTKAGNKGVDCAVSAIEMANLNRSFE
notes: RibH, lumazine synthase of Bacillus subtilis, with K29R; printed mass 17.9 kDa; Cloning and purification are described in the Supplementary Data; the tag is likely N-terminal as in Strep-RibH (surmised); source: E. coli BL21 (DE3) Star, purified (Strep-Tactin, SEC); also coproduced with His6-RibE; copies: 60
B3: Strep-RibH^K29E (enzyme, Bacillus subtilis, UniProt P11998 1-154, looked up)
chain: MNIIQGNLVGTGLKIGIVVGRFNDFITSELLSGAEDALLRHGVDTNDIDVAWVPGAFEIPFAAKKMAETKKYDAIITLGTVIRGATTHYDYVCNEAAKGIAQAANTTGVPVIFGIVTTENIEQAIERAGTKAGNKGVDCAVSAIEMANLNRSFE
notes: RibH, lumazine synthase of Bacillus subtilis, with K29E; printed mass 17.9 kDa; Cloning and purification are described in the Supplementary Data; source: E. coli BL21 (DE3) Star, purified (Strep-Tactin, SEC); also coproduced with His6-RibE; not shown: Strep tag, N-terminal, kept; copies: 60

Target: the molecule itself
Experiment: pull-down + SEC; coproduced in E. coli BL21 Star, purified by Strep-Tactin affinity chromatography followed by SEC; pooled 60-mer peak (~1 MDa) analysed by SDS-PAGE

Stoichiometry N, 60:
B1
B2
B3
